Key:
[1] = molecular target: T1, interaction between Gal3 and TIM-3 (Mus musculus, UniProt P16110); test: Blocking ELISA, mouse Gal3 coated plate and mouse TIM-3 Fc; type: binding; conditions: mGal3 coated plate, mouse TIM-3 Fc
T1 construct: purchased BioLegend (mouse Gal3); R&D systems (mouse TIM-3 Fc)
Experimental: ELISA assays were also performed to test the interaction between Gal3 and TIM-3. 96 well ELISA plates (ThermoFisher Scientific) were coated with mouse Gal3 protein (BioLegend, San Diego, Calif.) in PBS or human Gal9 protein (R&D systems) in PBS or phosphatidylserine (PS) (Sigma) in ethanol and incubated at 4° C. for overnight. The plate was washed three times with TBST and then blocked with PBS buffer containing 2% BSA at room temperature for 1 hour. In FIG. 5A, different anti Gal3 antibodies, i.e. mGal3 polyclonal antibody (R&D systems), mAb IMT001 (also described in WO 2019/023247, hereby expressly incorporated by reference in its entirety), mAb M3/38 (Thermofisher Scientific) (FIG. 5A), were added to well that has been coated with Gal3. The antibodies were incubated for 10 minutes and mouse TIM-3 Fc were then added to the plates and incubated for an additional one-hour incubation. Plates were then washed for three times and followed by incubation with anti-human-IgG-HRP (Jackson ImmunoResearch) for 1 h at room temperature. The color was developed with TMB subtract (GeneTex, Irvine, Calif.) after three time washes with TBST and the reaction was terminated with 1N HCl. The optical density (OD) was read at 450 nm. The results were expressed as the average OD of duplicates±SD. […]

Gal9 binding to TIM-3 = molecular target: T2, Gal9 binding to TIM-3 (Homo sapiens, UniProt O00182); test: Sugar-dependence ELISA, hGal9 coated plate and mouse TIM-3 Fc
T2 construct: purchased R&D systems
T2 sequence (O00182 whole entry): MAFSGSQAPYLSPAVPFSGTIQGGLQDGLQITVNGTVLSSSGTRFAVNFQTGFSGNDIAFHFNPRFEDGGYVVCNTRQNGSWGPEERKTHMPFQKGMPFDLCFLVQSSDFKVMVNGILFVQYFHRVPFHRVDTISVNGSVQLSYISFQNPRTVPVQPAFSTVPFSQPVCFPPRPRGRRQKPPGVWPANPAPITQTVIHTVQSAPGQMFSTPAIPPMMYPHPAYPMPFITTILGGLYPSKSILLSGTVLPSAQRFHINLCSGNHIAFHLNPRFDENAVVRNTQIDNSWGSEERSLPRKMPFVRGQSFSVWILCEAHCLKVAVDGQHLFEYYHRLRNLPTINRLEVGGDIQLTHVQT

human Gal3-His = human Gal3-His (Homo sapiens, UniProt P17931); test: Antibody binning by biolayer interferometry (Gator); type: binding; conditions: antibody competition
human Gal3-His, sequence (P17931 whole entry): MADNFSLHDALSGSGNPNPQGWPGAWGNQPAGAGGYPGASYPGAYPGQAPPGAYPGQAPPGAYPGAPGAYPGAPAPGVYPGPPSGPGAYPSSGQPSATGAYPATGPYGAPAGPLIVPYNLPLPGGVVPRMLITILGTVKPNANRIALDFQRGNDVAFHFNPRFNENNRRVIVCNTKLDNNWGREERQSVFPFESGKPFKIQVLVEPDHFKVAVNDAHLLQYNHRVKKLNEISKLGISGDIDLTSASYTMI
Experimental: To determine whether Gal3-binding antibodies with Gal3-TIM3 blocking activity bind to the same or overlapping regions of the Gal3 molecule, antibody binning assays were performed to assess the ability of antibodies to simultaneously bind Gal3. Amine-reactive probes were loaded onto a Gator biosensor (Probe Life, Palo Alto, Calif.), equilibrated in dH20 for 60 seconds, dipped into 100 μl EDC 0.2M/NHS 0.05M activation buffer for 30 seconds, then dipped into a solution of […] human Gal3-His in 10 mM NaOAc buffer, pH 5 until binding was saturated, and quenched in 1 M ethanolamine pH 8.5 for 300 seconds. Following Gal3-His loading, tips were dipped in 20 μg/mL saturating antibody, then successively dipped into 5 μg/mL competing antibody.

[2] = molecular target: T3, association of GAL3 and TIM3 (Homo sapiens, UniProt P17931); test: GAL3-TIM3 blocking ELISA (Examples 24, 27); type: binding; conditions: 3 ug/mL antibody
T3 construct: full-length human Galectin-3 protein (Acro Biosystems, GA3-H5129); linker-spaced 6-histidine tag; purchased Acro Biosystems GA3-H5129 (Gal3); TM3-H5229 (TIM-3)
T3 sequence (P17931 2-250 limits assumed): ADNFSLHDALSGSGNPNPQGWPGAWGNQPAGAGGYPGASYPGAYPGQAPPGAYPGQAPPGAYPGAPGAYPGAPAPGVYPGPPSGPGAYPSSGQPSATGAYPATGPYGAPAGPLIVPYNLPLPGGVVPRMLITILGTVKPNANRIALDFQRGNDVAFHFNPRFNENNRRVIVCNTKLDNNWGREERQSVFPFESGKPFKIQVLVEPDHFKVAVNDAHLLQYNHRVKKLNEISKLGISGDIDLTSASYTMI
Experimental: Positively scoring wells were evaluated for the ability to block association of GAL3 and TIM3. To identify GAL3-targeted antibodies with the ability to block the interaction of GAL3 and TIM3, purified GAL3 and TIM3 proteins were incubated in the presence of GAL3-immunization hybridoma supernatants described above, or without antibody, and protein interaction was evaluated by ELISA. Human Galectin-3 protein (Acro Biosystems, GA3-H5129) was diluted in PBS (Corning, 21-030-CM) to a concentration of 3 μg/ml and added to the wells of a 96-well ELISA plate (Thermo Fisher, 44-2404-21). After incubating the plate at 4° C. overnight, the plate was washed three times with PBST (PBS with 0.05% Tween 20 [VWR, 0777]). The plate was then blocked for an hour with 2% BSA (EMD Millipore, 126609) in PBST at room temperature with gentle rocking. Thereafter, the 2% BSA in PBST was discarded and antibody or inhibitor (3-fold dilutions beginning at 20 μg/ml, 60 μg/ml, or 180 μM) in 2% BSA in PBST was added to the wells. Afterwards, 2 μg/ml of human TIM3 (Aero Biosystems, TM3-H5229) in 2% BSA in PBST was added to the antibody or inhibitor in the wells in a 1:1 ratio. The plate was incubated for an hour at room temperature with gentle rocking. Thereafter, the plate was washed three times with PBST, and 0.3 μg/ml of human TIM3 Biotinylated Antibody (R&D Systems, BAF2365) in 2% BSA in PBST was added to the wells. The plate was incubated for an hour with gentle rocking and then washed three times with PBST. Avidin-HRP (1:2000) was then added to the wells. The plate was incubated at room temperature for an hour with gentle rocking and then washed three times with PBST. TMB substrate (Thermo Scientific, 34029) was then added to each well. The reaction was stopped with 1M HCl (JT Baker, 5620-02) and read using a plate reader (Molecular Devices) at absorbance of 450 nm.

Galectin-3 = Galectin-3 (Homo sapiens, UniProt P17931); test: SPR (BiacoreT200) binding affinity; conditions: 25° C., read-out: hGal-3 KD
Galectin-3, sequence (P17931 whole entry): as the sequence (P17931 whole entry) above
Experimental: GAL3-binding antibodies were evaluated for their binding affinity by SPR. Kinetics experiments were performed on BiacoreT200 at 25° C. in high performance mode. Ligand proteins, purified antibodies were captured onto a CM5 chip coupled with anti-human Fc or anti-mouse Fc antibody, three antibodies at a time onto flow cell #2, 3, and 4, respectively, while flow cell #1 was used as reference. The analyte Galectin-3 in HBS-EP buffer was injected over all four flow cells at concentrations of 100, 50, 25, 12.5, 6.25, 3.125 and 0 nM at a flow rate of 30 μL/min. The complex was allowed to associate and dissociate for 240 and 300 seconds, respectively. The surfaces were regenerated with a 30 second injection of 10 mM Glycine pH 1.7 (flow rate 30 μL/min). The data were fit to a simple 1:1 interaction model using the global data analysis option available within BiacoreT200 Evaluation software V2.0. The affinity of Gal3 monoclonal antibodies was confirmed to be […] 30 nM for all antibodies studied (Table 24.1). Antibodies with affinity less than 2E-7 were selected for further characterization.

hGal3 peptide = test: Gal3 peptide library ELISA (Example 25); type: binding, human; conditions: hGal3 peptide No. bound
Experimental: To identify the epitopes to which Gal3 antibodies with and without Gal3-TIM3 blocking activity bound, a library of 20 amino acid peptides representing portions of Gal3, summarized in Table 24.1, was produced and the ability to bind Gal3 antibodies was evaluated by ELISA.
At least 2 μg/ml of hGal3 peptide in 50 μl of PBS or 0.1 μg/ml of full-length human Gal3 protein (GenScript) and human Galectin-3 protein (Acro Biosystems, GA3-H5129) were diluted in PBS (Corning, 21-030-CM) to concentrations of at least 2 μg/ml or 0.1 μg/ml, respectively, and added to the wells of a 96-well ELISA plate (Thermo Fisher, 44-2404-21). After incubating the plate at 4° C. overnight, the plate was washed three times with PBST (PBS with 0.05% Tween 20 [VWR, 0777]). The plate was then blocked for an hour with 2% BSA (EMD Millipore, 126609) in PBST at room temperature with gentle rocking. Thereafter, the 2% BSA in PBST was discarded and human Galectin-3 hybridoma supernatants or antibodies were diluted in 2% BSA in PBST to concentrations of at least 0.1 μg/ml and added to the wells. The plate was incubated for an hour at room temperature with gentle rocking and then washed three times with PBST. Afterwards, Goat Anti-Mouse IgG-HRP (Jackson ImmunoResearch, 115-036-1461) or Goat Anti-Rat IgG HRP (abcam, ab205720) diluted in 2% BSA in PBST (1:4000) were added to the wells. The plate was incubated for 30 minutes to 1 hour at room temperature with gentle rocking and then washed three times with PB ST. TMB substrate (Thermo Scientific, 34029) was then added to each well. The reaction was stopped with 1M HCl (JT Baker, 5620-02) and read using a plate reader (Molecular Devices) at absorbance of 450 nm.

T1 sequence (P16110 2-264 limits assumed): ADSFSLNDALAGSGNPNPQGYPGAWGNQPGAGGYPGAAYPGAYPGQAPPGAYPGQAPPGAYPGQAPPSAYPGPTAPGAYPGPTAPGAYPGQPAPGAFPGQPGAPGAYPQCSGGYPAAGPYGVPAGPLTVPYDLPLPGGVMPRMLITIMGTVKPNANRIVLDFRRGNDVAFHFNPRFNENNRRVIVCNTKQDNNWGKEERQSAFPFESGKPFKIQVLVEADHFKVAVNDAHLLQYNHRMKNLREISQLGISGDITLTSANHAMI

| Molecule | block of Gal3 binding to TIM-3 [1] | reduction in signal, Gal9-TIM-3 binding (Gal9 binding to TIM-3; 25 mM α-Lactose present vs absent) | block of Gal9 binding to TIM-3 (Gal9 binding to TIM-3; 25 mM α-Lactose, hGal9 coated plate) | Bin (human Gal3-His) | GAL3-TIM3 Blocking @ 3 ug/mL [2] [%] | Kd (Galectin-3) [nM] | Epitope Mapping (hGal3 peptide) |
| --- | --- | --- | --- | --- | --- | --- | --- |
| OC[C@H]1O[C@@H](O[C@H]2[C@H](O)[C@@H](O)[C@@H](O)O[C@@H]2CO)[C@H](O)[C@@H](O)[C@H]1O [lactose, α-Lactose, reference compound] | minimal | more than 10 fold | blocked |  |  |  |  |
| 24D12.2H9: murine anti-Gal3 antibody (antibody, V domains shown, VH of 24D12.2H9; VL of 24D12.2H9, murine anti-Gal3 antibody) VH: QVQLKQSGPGLVQPSQSLSITCTVSGFSLTSYGVHWVRQAPGKGLEWLGVIWSGGSTDYNAAFMSRLSISKDNSKSQVFFKMNSLQADDTAIYYCAKSPDGYDVAWFGYWGQGTLVTVSA VL: DIVMTQSHKFMSTSVGDRVSITCKASQDVRTAVAWYQQKPGQSPKLLIYWASTRHTGVPDRFTGSGSGTDFTLTLSNVQSEDLADYFCQQYSSYPWTFGGGTKLEIK |  |  |  | 11 | 0 | 4.13 | Non-linear |
| 12G5.D7: murine anti-Gal3 antibody (antibody, V domains shown, VH of 12G5.D7; VL of 12G5.D7, murine anti-Gal3 antibody) VH: QVQLKQSGAELVRPGASVKLSCKASGYTFTDYYINWVKQRPGQGLEWIARIYPGTGNTDYNEKFKGRATLTAEKSSSTAYMQLSSLTSEDSAVYFCARFAYYYGSGGYFDYWGHGTTLTVSS VL: DILMTQSPSSMSVSLGDTVSITCHASQGINSNMGWLQQKPGKSFKGLIYHATNLEDGVPSRFSGSGSGADYSLTISSLESEDFADYYCVQYAQFPPTFGSGTKLEIK |  |  |  | 10 | 12 | 1.9 | Non-linear |

From patent publication US20220380473A1, “ANTI-GAL3 ANTIBODIES AND USES THEREOF” (TrueBinding, Inc., priority 2019, published 2022)
